Molecular target: Recombinant His-tagged mouse CD36.ECD protein (Sino Biological) (mouse) (UniProt Q08857)
Test: ELISA, coated mouse CD36.ECD (FIG. 1D)

Chain of Recombinant His-tagged mouse CD36.ECD protein (Sino Biological) (mouse) (Q08857 30-439 limits assumed): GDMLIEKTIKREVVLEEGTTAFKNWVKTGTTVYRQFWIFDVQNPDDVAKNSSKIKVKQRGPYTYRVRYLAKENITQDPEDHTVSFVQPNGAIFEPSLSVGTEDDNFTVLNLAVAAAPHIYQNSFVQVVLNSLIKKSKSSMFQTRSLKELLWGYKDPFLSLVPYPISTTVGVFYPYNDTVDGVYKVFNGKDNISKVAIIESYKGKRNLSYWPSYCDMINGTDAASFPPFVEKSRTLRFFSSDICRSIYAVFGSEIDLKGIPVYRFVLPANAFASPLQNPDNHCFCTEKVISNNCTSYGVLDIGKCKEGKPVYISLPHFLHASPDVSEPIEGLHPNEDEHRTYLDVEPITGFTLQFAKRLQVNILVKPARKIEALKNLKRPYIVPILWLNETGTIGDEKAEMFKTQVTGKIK

## D2712 (clone CRF D-2712, BD Biosciences, US) (antibody)
  EC50: 0.93 nM

Reference: US20250206837A1
